Among the data in a protein production outcome set (Wang et al. 2014) are protein production values, retold here.

A short description of this data set: label from the status in PepcDB records.
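Also: failed if final PepcDB status was selected cloned or expressed and not failed if soluble or beyond.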

On to “MNFSLVHLRENVRRVSVTVAIGAGALLISGPFFTAHTAEATETYVLAESPEFYQDNVTDYTGQISSSDITNIQAAIDDVKASEQKVIFVVFLSSFDGVDPETWTQQALQANGGGNVLIYALAPEERQYGIQGGTQWTDAELDAANNAAFQALSQEDWAGSALALAESVGSSSSSSSGSSSSSDFSGAWLAAAGVGTVAAGGGIWAYSRSRKKKTSAATLEDAREIDPRDTNRLMQLPMETLEHLAQEELTSTDDSIRRGKEELAIATSEFGPERTRSFNRAMNHSTGTLQKAFEIQQRLNDSIPESEAERQSMLVEIISSCGQADDALDAEAQNFADMRNLLINAGSKLDALTQKSVDLRTRLPKAQETLAGLRTRYSAEVLESIDDNVDLASASLDEAEEVLPQAYEIESMPAGEQGGLIDAIRHIEHAITTADKLLAGVEHADENISTAKANVADLIQEISDEINEAGQLKQSAGADGARADWASLDDAVRAASAALITASADAEKDPLGTYTELVDVDSALDTQLDTLRATAADQARQLRVFDQQLQSARSQIQKAEDLISTRGRIVKSEARTHLANAQKLYAMAQQNRTRDTRAGIDYGRQAAVAAQRASKSAQNDITTYNNRHNSGGGTTGAIVTGMVINSILNSGRGGGFGGGGGFGGGGGGFSGGGGGGGGFRGGRF”, for which the protein production result is recorded as “failed”.

Consider “MNFVTFQFVVFLVITVIVFMMMSPYYRKYFILLCSYFFYGTWSVPLISVILFSTSVDYYLGKKIHESHSQTHKKLYLTLSILVNCSILVYFKYMNFFISSIDAIGFSLGATQLLLNPMHIILPLGVSFYTFEAISYIVDIYRGEKPASSWLNYNFYIMYFPHLISGPIVRYKELHAQYESKIELPETSRLKEGFQLLLYGFIFKLVIADSMASISDPLFDKYQTIGHLESWLASIAFTIQIYFDFLGYTHIARGVSLFFNIKLPVNFNHPYNARNISEFWQRWHITLSLWIRDYLYIPLGGNRGRLYQTVNNLLITMFIAGLWHGASWNYAIWGTYHGCLLAVYHVFRFYYIKRNLQTENQLMKIGSIIMTYSLVVIGWVIFRSTSFEQAFTILGKMYDIPGFVQEFAMNQRASAYTDSLFYLVGMFALCFIGPTFKSIETKILSAVQPFWIKKWLYSLSIFTVLIFMFSPVKPFIYFVF”, for which the protein production entry is given as “failed”.

In the case of “MNFYWFDAFILGFTLLLGLKGIINGLIKEIFGLLGIIGGVFIASKYATQAAEFIQSTFYKIENQSLAGFAGFLAILIIFWIVCLLVGNFLSRLIKLSGLGFLDRIGGFIFGGAKIFLIFAILVFCVARIDFLNDKLDNFAKNSYTLNLLKETGSFIMNQPLTENSLDHASEKLQDIVSDLNNTQKGE”, the protein production entry is recorded as “failed”. To “MNGFSQLEGLRGHPSVVRVIGHRGARGVMPENTLEGFAFTLAAGVRALEFDVVMTADGVPVVTHNHHLANAMTRDGQGHWLTGAERQVAEMTYAEIRALDVGGLDGRTVYGRRFPDQAFLTGIHVPRLGELLDLCAGYGDQAPYLLLELKSDPALMHDHAARAEMVAAVLADVRRYRMEPRTVMHSFDWALLGECRRQAPDLPTSYLSQLPENADDPGEDSAKPVGPDYDRMTESLPQAVASAGGQLWCPYFLDVTPELVAEAHDLGLIVLTWTVNEPEDIRRMATTGVDGIVTDYPGRTQRILIDMGLSWT” belongs “not failed”; to “MNGHAFFFAGVRLTALPSGALWWPAERLLCVSDLHLGKAERLARRGGTLLPPYETQATLARLEADLEATGAERVLCLGDSFDDGAAADGLAEPERLWLRRLMTGRDWIWILGNHD”, “failed”; to “MNGQAKTISASAKGIPQPSNNNFVDFTMSYNGTTKVMSITYGGQTWTQNVSSFIGTNQAMSFSIAASTGAQMNLQQLRNVNFTYTVAQGTVIANYVDEQGNTIAQQETTSGDIDTPYVTSQKTIPGYTFKASNGAATSGNYAANDQTVNYVYTRNQGSIDVTYIDQTTGQTLSKKDLSGGTGDSSNYTTTDTIKSYTDAGYELVSDNYPSGGTVFTDTAQHYVVNLKQKLVVSSEQKQVNETIQYVYEDGSKAADDYNAPPLNFTRSVTTNQVTGEKTYGDWQAQNGDSFGEVVSPTIKGETADQLKIDAISGITANSADIQKKVVYKRNQGTIDVTYIDETTGQVLTKKDLSGGTDDPSNYTTADDIKSYTDKGYELVSDDYPSGGTVFTDEPQHYVVKLKHGLTESTDKKAVNQVIHYVYEGGGEAATDHNATVDFSRTITTDRVTNDKTYGDWTADNGDSFASVTSPVIDGYTADQLKVSEMTGITADTEDISVTVTYTRNQGTIDITYIDQTTGQTLSKKDLSGGTGDDSGYTTADTIKSYTDKGYELISDDYPEDGTKFADDPQHYIVRLKHGLTEVTENKTVNQVIHYVYEGGGEAATDHNATVVFSQTITTDKVTGEKTYSDWTADNGDSFASVTSPVIDGYTADQLKVSEMTGITVDTEDISVTVTYTRNQGTIDVTYIDETTGKILTTKDLSGGTGDDSGYTTADTIKSYTDKGYELVSNDYPEDGTKFADDPQHYIVRLKHGTVVETENKSVNEVIHYVYDNGDKAADNYKATIVFSRTITTDKVTGEKTYSDWTADNGGRFAAVLSPIIKDYIASQLKVDEMTGITVDTADIERIVVYHKVPAGIIVPPVHPDKPSQPSNNQSKIPTAKAVKDSKPTDVLPSTGDSQKSQIVLTLLGIMAVIISPLALLLRRRKQ”, “failed”.

Consider “MNGVELTLTGAEVLLPGGPARRDLCLSGGQVVDAPAGRQVDLSGYLVLPGIVDLHGDGFERHMAPRRGAMKEMGEGVVAAEAELAANGITTAVLAQFWSWEGGLRGPDFAAGVFQAIRQVQGSLVTDLIPQLRFETHLLEDYAALPDRLAEWQVPYVVFNDHLPHDRLAEGRKPPRLAGQALKAGRSPEAHLALLQALHANGPQVPAALDKLCAELHRRGVRMGSHDDHSAEDCATGQGRGLTISEFPETLEAAEATRASGGHVILGSPNVVRGGSHKGNVSALDLITMGLCDALASDYHYPSPRRAALMLVRTGLLDLAAAWALVSSGPARVLGLDDRGELAPGKRADLVILDAQSHRVAATFAAGRVSYMSGDVATRFLA”, for which the protein production entry is recorded as “failed”.

Take “MNGYIINIRYQQMGRVIYMFFFAIFGIQDKNKHIGNCNNIVCPSCGRLSMYEVYKYYKYFHIFFLPIFKWDVRYIVKTSCCGCLYELDPLVGKEFEKNPSTEIREENLQRIDRYSPFKYCSNCRTEVPVEYSYCPYCGERLLEHHHHHH”: the protein production entry was “failed”.

With “MNGYRRKNMRLINTTSSHQHLVKNQLKHTDATLVETYSAGNTDVIFTQAPKHYELLISNKHRAIKDNEIETIREFFLKRKINKNIILLDQLKTLHTANLIEISIPIAD”, the protein production result is recorded as “failed”. To “MNHAITMGIFWHLIGAASAACFYAPFKKVKHWSWETMWSVGGIVSWLILPWAISATLLPDFWAYYRSFSASTLLPVFLFGAMWGIGNINYGLTMRYLGMSMGIGIAIGITLIVGTLMTPIINGQFAVLMHTQGGQMTLLGVLVAVIGVGIVTRAGQLKERKMGIKAEEFNLKKGLLLAVMCGIFSAGMSFAMNAAKPMHDAAAALGVDPLYAALPSYVVIMGGGALVNLGFCFIRLAKVKNLSVKADFSLAKPLIISNLLLSALGGLMWYLQFFFYAWGHASIPAQYDYMSWMLHMSFYVLCGGVVGLVLKEWNNAGRRPVSVLSLGCVVIIIAANIVGLGMAS” belongs “failed”. With “MNHPAHHGPTVTPKRRHPDSTGAAPVGIVIATRNRRASLAVTVRNLLALPERPDVLVVDNASTDDTRAMLARDFPQVRVLPLPYNRGALARTHGVRALDTPYVAFSDDDSWWAPGALGAAARHFDDHPRLGLLSARTLVGPGDAADPLNDLLADSPLGTATDLPGTQVLGFLGCAAVARRTAYLDAGGYHPLLFFGGEETLLAYDLAARGWGVTHCPDVIAHHHPHPRPRTGRPAVVRRNALLTAWLRRPLPHALARTRALAADARRDPHARHALRETLTRLPAALRARRPLPPHVERAARLLDGADGPDGPGGAVSLEHHHHHH” the entry was “not failed”; with “MNHPDLAGKVAIVTGAGAGIGLAVARRLADEGCHVLCADIDGDAADAAATKIGCGAAACRVDVSDEQQIIAMVDACVAAFGGVDKLVANAGVVHLASLIDTTVEDFDRVIAINLRGAWLCTKHAAPRMIERGGGAIVNLSSLAGQVAVGGTGAYGMSKAGIIQLSRITAAELRSSGIRSNTLLPAFVDTPMQQTAMAMFDGALGAGGARSMIARLQGRMAAPEEMAGIVVFLLSDDASMITGTTQIADGGTIAALW”, “not failed”.

As to “MNHRSVRGICATLGVLLVIGCSGPDAKKAKFYAKGKELYDKGDYAKAALEFKNAIQIDPKYAEAYHMLGLVEMKKGNIKGAFGNFTKAVELNPQHQEARLQLGRIYLGAGAPDEAMKEAVEVLKINPASEDAQLLKGAVLIARKEKGKARELLEGLVAKGVKKPDAYSLLASIHALDGNAKDAEAILRKGLAINPSSSDLHLTLAGLCVGTGRTDEAISLLQRVVSLEPGRTDHRLKLAALCWDTGKVAEARKALTDLVAIAPEKEENRLQAAGFLAGKGEADEAEKLLKEGIAGKGKNYKLRFALADLYLNTGKGDQAVTLLTETAGLDKASRQESLQAKNALAQIALDRNRVDEAVKLVTEVLKESPKNTDARFLKGNIHMMKGEGAQAVAEYRTVVTDNPQSVPGFIRLAEAHLLNREKNLAFDNLQNALKIDPENRDALVALARYHVMQKDMKNAEAALRKVLAKSPNDLEAKAELGDLFLAAGDLKRAEAEYGELKRKAPGLPVGYVKMGDIYLHRGKSDKALAELEQAVRLNPSSELLAGSLARLYTRLGKFDKAEFLLDQRLKQNPNDAASYTLLGQMNVARNQYGKARQAYEKALSLNGSNWSAANDLAFLLAETGSGADLDRALTLIEKVKQSRPDDPRVLDTVGWIYYKKGNAGKAVEILSQVHRKTGDSPVIDYHLGMASYKAGDKARAKELLTKAMTSKSGFAGREEAVKTLGIIKG”, the protein production result is listed as “failed”.

With “MNHSFRTGITGRRFSAMRVPYGRSRRTHRNGGAGREGTTMTTTTTPTTTTPTSPPTVKAPTVKAPTAKTATAKTADNPVLRVAPASPAAAAAYFGASLAFHADVSDVATALAAGGDPGFVVLDSRSTASWDQGHVPGAVHLPTALIPEQAEQLLDRSVPVVTYCWGPGCNGATRAALALAELGFQVKEMLGGFEYWVREGFEYETWEGRDHRVADPLTAPVDADDCGC”, the protein production entry is recorded as “failed”.

For “MNHTADNCIFCKIIDGQILCSKVYEDEHVLAFLDISQVTKGHTLVIPKVHKQDIFALTPEIASHIFSVVPKIANAIKAEFNPVGFNLLNNNGEKAGQTVFHFHLHLIPRYGENDGFGAVWKSHQNEYTMENLQNIASTIANSVK”, the protein production result is listed as “not failed”. To “MNHTLQFPKAPEHLLQALNEVIPKCKLMAQQLPETAISLWLIPPVFPTERLDDDIIRRIWSDTPYWIFCWASGLAMAQWLLAEPHHVKDKVVLDFGAGSGVVAIAAKMAGAKRVICCDIDETSLNACRENALLNNVELEYLNDLYLSESVDILLAADVLYDQSNRFFLDEFLKFAPEVWVADSRVKNFSHPGYIKIDERSATTWPDLDEAKEFRNVSFYKTL” belongs “failed”; to “MNIDAVVEFTKKHLKDEKTGHDFYHGQRVANLASKMYLEDHPDAHADSRMVAIIKSGGYLHDTIDEKVCDNPDKVIAEIKELLPEVGFTDLEVWDILFTIQHMSFSANIEHHYHLPLSGQYVQDADRLESLGAMGIARAFTYGGKHGNKIYDPEIKPEKLVSHDQYRNHVETTINHFYEKLFHLADTMNTPAMKKEANRRTEYMHNFVQEFMNEWNVLEHHHHHH”, “not failed”; to “MNIDLSAIFAQYEALVAETDALFERVRALHPDCVTCGLGCSDCCHAMFDLSLVEAMYLNGKFAASFDFGPERSAVLERASDADRHAYRIKRRMYRESEDGRPAEDILAEAARERVRCPLLGEGDACVLYAHRPITCRLYGIPTAIGGKGHTCGKTAFRAGEKYPTVAVDRIQDRLAALSKEIAVAVGSRFSELHQVYVPVSMALLTRYDDAYLGIGKPKRDD”, “failed”.
